Experimental data published in paper doi:10.1101/2023.04.12.536585, “Allosteric activation or inhibition of PI3Kγ mediated through conformational changes in the p110γ helical domain” (bioRxiv, 2023).

What was measured:
Experiment in all cases: BLI; His-tagged NB7 (500 nM) immobilised on Anti-Penta-His biosensor, dipped into PI3K in solution; dose response 50-1.9 nM for p110γ, p110γ-p84, p110γ-p101; 50 nM for the class IA comparison; 25 nM for phosphorylated and non-phosphorylated p110γ; Octet buffer 20 mM Tris pH 8.5, 100 mM NaCl, 50 mM ammonium sulfate, 0.1% BSA, 0.02% Tween 20; global fit to a 1:1 model
Settings in all cases: both partners purified
[1] = molecular target: T1, p110γ-p84 complex (human p110γ, mouse p84) (Homo sapiens p110γ; Mus musculus p84, UniProt P48736;Q3U6Q4)
T1 construct: p110γ catalytic subunit, human; plasmid pMultiBac-hsp110γ-mmp84 (MR24); p84 regulatory subunit of PI3Kγ, Mus musculus; The tag stood on p84 for purification and was cleaved by TEV on the column; also called p110/p84; not shown: 10xHis, N-terminal, cleaved; 2xStrep, N-terminal, cleaved

[2] = molecular target: T2, p110γ-p101 complex (human p110γ, porcine p101) (Homo sapiens p110γ; Sus scrofa p101, UniProt P48736;O02696)
T2 construct: p110γ catalytic subunit, human; plasmid pMultiBac-hsp110γ-ssp101 (MR22); full length p110γ in the p110γ-p101 model PDB 7MEZ; p101 regulatory subunit of PI3Kγ, Sus scrofa; The tag stood on p101 for purification and was cleaved by TEV on the column; also called p110/p101; not shown: 10xHis, N-terminal, cleaved; 2xStrep, N-terminal, cleaved

p110α-p85α complex = molecular target: T3, p110α-p85α complex (Homo sapiens (assumed), UniProt P42336;P27986)
T3 construct: p110α class IA PI3K catalytic subunit; plasmid pFASTBac p110α (pOV1181); p85α class IA regulatory subunit; Plasmids as described in Dornan et al., 2017 and Siempelkamp et al., 2017; also called PI3Kα; source: PI3Kα gel filtration buffer

p110β-p85β complex = molecular target: T4, p110β-p85β complex (Homo sapiens (assumed), UniProt P42338;O00459)
T4 construct: p110β class IA PI3K catalytic subunit; plasmid pFASTBac p110β (pOV1182); p85β class IA regulatory subunit; also called PI3Kβ; source: PI3Kα gel filtration buffer

p110δ-p85β complex = molecular target: T5, p110δ-p85β complex (Homo sapiens (assumed), UniProt O00329;O00459)
T5 construct: p110δ class IA PI3K catalytic subunit; plasmid pFASTBac p110δ (pOV1183); p85β class IA regulatory subunit; also called PI3Kδ; source: PI3Kα gel filtration buffer

T3 sequence (P42336 whole entry, chain 1 of 2): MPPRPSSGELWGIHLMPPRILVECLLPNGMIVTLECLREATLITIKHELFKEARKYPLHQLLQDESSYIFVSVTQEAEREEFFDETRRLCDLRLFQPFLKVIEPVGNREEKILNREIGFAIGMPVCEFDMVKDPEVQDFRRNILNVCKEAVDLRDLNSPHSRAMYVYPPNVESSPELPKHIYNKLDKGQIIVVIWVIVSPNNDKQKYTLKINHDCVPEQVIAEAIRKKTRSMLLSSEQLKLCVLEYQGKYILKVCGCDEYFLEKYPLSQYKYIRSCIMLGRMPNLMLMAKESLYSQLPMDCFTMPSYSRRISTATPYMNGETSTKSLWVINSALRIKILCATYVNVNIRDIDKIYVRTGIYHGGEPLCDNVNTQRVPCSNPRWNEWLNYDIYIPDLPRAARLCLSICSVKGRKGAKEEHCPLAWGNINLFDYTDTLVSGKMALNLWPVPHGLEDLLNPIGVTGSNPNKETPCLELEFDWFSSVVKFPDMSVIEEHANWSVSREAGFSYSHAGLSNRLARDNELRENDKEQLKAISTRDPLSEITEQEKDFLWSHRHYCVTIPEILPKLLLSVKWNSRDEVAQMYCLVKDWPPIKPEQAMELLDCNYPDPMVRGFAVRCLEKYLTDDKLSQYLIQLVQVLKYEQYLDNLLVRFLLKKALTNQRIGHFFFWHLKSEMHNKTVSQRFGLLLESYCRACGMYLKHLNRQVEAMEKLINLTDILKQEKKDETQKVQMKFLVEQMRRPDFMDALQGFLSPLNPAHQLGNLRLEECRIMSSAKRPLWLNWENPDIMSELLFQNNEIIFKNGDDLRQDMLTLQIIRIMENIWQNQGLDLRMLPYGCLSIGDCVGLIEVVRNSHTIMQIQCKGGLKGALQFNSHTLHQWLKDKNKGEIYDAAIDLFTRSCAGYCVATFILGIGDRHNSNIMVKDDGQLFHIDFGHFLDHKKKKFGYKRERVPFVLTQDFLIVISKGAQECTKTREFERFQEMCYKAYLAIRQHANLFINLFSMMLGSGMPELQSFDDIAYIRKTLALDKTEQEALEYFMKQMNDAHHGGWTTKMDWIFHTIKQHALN
T3 sequence (P27986 whole entry, chain 2 of 2): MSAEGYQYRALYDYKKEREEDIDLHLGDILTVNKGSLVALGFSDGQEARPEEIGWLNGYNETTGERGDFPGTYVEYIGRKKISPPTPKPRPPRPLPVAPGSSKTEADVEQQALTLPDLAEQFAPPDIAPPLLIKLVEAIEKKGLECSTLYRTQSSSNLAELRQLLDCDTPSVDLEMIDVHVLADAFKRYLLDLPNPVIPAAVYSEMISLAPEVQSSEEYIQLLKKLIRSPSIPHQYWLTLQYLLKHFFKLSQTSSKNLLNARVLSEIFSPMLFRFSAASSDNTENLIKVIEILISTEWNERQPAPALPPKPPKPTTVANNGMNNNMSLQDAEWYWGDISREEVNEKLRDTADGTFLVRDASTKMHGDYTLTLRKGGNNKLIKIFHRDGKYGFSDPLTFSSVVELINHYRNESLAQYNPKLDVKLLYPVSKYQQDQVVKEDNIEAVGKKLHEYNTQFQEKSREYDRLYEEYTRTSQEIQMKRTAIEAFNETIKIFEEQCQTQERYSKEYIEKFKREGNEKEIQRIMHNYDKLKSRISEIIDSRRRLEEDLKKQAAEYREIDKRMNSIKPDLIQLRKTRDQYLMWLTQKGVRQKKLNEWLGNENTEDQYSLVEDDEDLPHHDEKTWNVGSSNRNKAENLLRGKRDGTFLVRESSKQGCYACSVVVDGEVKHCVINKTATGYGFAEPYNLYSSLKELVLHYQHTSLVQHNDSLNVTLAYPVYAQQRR
T1 sequence (P48736 whole entry, chain 1 of 2): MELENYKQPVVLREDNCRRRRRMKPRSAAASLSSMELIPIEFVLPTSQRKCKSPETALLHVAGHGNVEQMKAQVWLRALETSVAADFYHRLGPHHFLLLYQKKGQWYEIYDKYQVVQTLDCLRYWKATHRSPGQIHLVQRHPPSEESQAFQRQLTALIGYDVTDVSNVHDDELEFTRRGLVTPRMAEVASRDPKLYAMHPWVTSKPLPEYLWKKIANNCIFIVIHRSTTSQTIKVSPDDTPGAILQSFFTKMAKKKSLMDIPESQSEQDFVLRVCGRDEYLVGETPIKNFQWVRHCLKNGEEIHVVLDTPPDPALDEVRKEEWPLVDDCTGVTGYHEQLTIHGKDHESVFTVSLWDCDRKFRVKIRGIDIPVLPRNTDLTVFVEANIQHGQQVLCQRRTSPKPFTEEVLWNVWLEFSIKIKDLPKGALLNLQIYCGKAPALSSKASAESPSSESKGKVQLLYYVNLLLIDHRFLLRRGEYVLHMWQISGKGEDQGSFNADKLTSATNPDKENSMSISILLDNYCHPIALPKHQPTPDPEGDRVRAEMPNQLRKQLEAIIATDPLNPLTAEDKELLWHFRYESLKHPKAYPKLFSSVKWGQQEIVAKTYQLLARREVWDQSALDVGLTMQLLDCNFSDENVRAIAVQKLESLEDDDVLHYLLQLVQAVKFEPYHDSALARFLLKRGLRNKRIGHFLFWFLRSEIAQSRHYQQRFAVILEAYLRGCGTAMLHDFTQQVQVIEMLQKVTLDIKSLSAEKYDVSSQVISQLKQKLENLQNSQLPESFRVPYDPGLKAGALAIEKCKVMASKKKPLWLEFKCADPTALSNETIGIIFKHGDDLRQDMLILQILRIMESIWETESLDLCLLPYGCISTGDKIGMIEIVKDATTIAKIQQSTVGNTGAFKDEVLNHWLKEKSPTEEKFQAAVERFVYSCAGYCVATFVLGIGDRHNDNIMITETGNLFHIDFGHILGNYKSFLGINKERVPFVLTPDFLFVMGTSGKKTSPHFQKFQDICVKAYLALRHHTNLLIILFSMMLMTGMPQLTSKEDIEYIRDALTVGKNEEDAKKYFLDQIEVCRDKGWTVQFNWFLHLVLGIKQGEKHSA
T1 sequence (Q3U6Q4 whole entry, chain 2 of 2): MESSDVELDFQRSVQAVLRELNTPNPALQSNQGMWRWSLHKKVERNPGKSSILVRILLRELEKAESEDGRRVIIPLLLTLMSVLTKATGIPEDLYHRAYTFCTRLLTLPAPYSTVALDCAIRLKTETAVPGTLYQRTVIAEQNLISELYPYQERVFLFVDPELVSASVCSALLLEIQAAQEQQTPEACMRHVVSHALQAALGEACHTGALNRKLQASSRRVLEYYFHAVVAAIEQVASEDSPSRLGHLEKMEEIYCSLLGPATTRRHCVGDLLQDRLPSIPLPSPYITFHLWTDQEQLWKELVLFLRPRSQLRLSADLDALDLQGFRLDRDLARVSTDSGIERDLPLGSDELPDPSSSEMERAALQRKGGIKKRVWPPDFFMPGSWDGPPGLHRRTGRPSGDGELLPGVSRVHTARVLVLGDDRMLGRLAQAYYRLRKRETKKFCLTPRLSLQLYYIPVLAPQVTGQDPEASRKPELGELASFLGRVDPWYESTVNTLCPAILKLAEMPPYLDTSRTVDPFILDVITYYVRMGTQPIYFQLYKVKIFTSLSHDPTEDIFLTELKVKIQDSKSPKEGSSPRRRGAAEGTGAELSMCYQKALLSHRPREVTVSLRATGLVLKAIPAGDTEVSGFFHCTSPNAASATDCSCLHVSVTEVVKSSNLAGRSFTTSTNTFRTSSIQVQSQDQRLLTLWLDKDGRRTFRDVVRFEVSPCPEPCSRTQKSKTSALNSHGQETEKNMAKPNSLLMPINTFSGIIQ
T2 sequence (P48736 whole entry, chain 1 of 2): as the sequence (P48736 whole entry, chain 1 of 2) above
T2 sequence (O02696 whole entry, chain 2 of 2): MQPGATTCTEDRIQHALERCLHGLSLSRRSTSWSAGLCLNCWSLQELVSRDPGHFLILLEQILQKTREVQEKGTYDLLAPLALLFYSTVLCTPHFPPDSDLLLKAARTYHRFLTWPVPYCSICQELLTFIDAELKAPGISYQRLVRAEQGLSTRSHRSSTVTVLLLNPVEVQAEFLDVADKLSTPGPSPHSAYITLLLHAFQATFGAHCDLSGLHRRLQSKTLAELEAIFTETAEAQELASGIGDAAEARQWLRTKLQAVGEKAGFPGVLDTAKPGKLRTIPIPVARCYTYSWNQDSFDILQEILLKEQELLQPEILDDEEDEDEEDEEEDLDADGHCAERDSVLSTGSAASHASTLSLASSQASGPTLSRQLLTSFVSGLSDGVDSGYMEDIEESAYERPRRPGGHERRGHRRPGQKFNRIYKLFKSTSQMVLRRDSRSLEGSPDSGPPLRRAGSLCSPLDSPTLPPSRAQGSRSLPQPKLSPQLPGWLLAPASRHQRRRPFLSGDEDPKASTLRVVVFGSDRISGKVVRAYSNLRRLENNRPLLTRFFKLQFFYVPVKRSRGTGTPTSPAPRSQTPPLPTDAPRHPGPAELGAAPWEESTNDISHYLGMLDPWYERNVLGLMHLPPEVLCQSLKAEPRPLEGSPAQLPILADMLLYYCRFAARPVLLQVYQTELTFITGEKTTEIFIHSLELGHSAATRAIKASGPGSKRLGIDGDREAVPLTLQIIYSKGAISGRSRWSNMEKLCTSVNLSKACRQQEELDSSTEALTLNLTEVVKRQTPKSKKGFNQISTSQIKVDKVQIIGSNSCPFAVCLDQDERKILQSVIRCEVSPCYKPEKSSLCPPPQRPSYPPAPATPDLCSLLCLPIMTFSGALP

B1: Nanobody NB7-PIK3CG (VHH)
VHH: QVQLVESGGGLVQPGGSLRLSCAASGSIFSINAMGWYRQAPGKQRELVAHITSGGSTNYADSVKGRFTISRDNAKNTVYLQMNSLKPEDTAVYYCNEAGDPFLGSTWNGPPAFGSWGQGTQVTVSS
notes: Identified earlier (Rathinaswamy et al., 2021b); also called His-NB7; nanobody 7; source: E. coli WK6 periplasm (pMESy4 vector), purified (Ni-NTA, SEC); not shown: His6, C-terminal, kept
[1]
  Kd: ~2 nM
[2]
  Kd: ~2 nM
p110α-p85α complex
  binding result: no binding (tested: 50 nM)
p110β-p85β complex
  binding result: no binding (tested: 50 nM)
p110δ-p85β complex
  binding result: no binding (tested: 50 nM)
